# What was measured:
# [1] = target: recombinant cynomolgus IL-1β (cynomolgus) (UniProt P79182); assay: yeast surface display, flow cytometry with biotinylated antigen
# [2] = target: recombinant human IL-1β (human) (UniProt P01584); assay: as above
# [3] = target: recombinant cynomolgus IL-1β (cynomolgus) (UniProt P79182); assay: flow cytometry of yeast-displayed scFv, titration of biotinylated IL-1b, 25 °C, 30 min, mean fluorescence [Parental]
# [4] = target: recombinant human IL-1β (human) (UniProt P01584); assay: as above
# recombinant cynomolgus IL-1β (cynomolgus), sequence (P79182 117-268 limits assumed): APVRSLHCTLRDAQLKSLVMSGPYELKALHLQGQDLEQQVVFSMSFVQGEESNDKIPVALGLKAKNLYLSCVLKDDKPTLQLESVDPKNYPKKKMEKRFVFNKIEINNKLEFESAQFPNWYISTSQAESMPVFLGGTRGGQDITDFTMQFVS
# recombinant human IL-1β (human), sequence (P01584 117-269): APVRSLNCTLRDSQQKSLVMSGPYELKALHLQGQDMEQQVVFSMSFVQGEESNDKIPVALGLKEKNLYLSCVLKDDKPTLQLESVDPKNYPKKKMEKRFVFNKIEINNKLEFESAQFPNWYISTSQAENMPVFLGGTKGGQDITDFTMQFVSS
binder,measurement,setting,value
"h1B12.1 scFv displayed on the surface of yeast (scFv, part only; not given: linker, domain order, yeast display partner, V domains shown, not shown: another chain or arm of the molecule; large carriers; small tags and cut ends) VH: EVQLQESGPGLVKPSETLSLTCTVSGFSLSDYGVSWIRQPPGKGLEWLGLIWGGGDTYYNSPLKSRLTISKDNSKSQVSLKLSSVTAADTAVYYCAKQRTLWGYDLYGMDYWGQGTLVTVSS VL: DTQVTQSPSSLSASVGDRVTITCITSTDIDVDMNWYQQKPGKPPKLLISQGNTLRPGVPSRFSSSGSGTDFTFTISSLQPEDFATYYCLQSDNLPLTFGQGTKLEIK",Kd,[1],0.01 to 0.03 µM
same,Kd,[2],0.01 to 0.03 µM
same,EC50,[3],0.0235 µM
same,EC50,[4],0.0151 µM
